The series has as its system Escherichia coli TOP10. The series can be described thus: shrunken log2 fold change of peptide-encoding DNA abundance (4.5 h post-induction vs induction); higher = less antimicrobial activity (less host growth inhibition). Particulars: time post-induction: 4.5 h; library: site-saturation at positions 5, 18, 19, 20.
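Further: peptides expressed intracellularly from a pBAD plasmid library in pooled LB shake-flask culture, induced with 0.3% L-arabinose, DNA abundance read by NGS, three biological replicates, DESeq2 with apeglm shrinkage.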

For the sequence RRIRERPPRLPRPRPRPPWFPRP, the “shrunken log2 fold change” value was determined as 0.0508.
On to RRIRWRPPRLPRPRPRPALYPRP, for which the “shrunken log2 fold change” value came out at 0.232.
For RRIRKRPPRLPRPRPRPMCYPRP the value was -0.00324; for RRIRHRPPRLPRPRPRPCTCPRP, -0.0115.
Under RRIRERPPRLPRPRPRPSAIPRP stands -0.115; under RRIRIRPPRLPRPRPRPASFPRP, -0.167; under RRIRMRPPRLPRPRPRPYDMPRP, -0.0585.
As for RRIRLRPPRLPRPRPRPWMSPRP, the “shrunken log2 fold change” value is -0.55.
Regarding RRIRLRPPRLPRPRPRPDAKPRP, the “shrunken log2 fold change” value was 0.0577.
For RRIRSRPPRLPRPRPRPNHHPRP the value was -0.566; for RRIRSRPPRLPRPRPRPHGRPRP, -0.0222.
Under RRIRYRPPRLPRPRPRPKTDPRP stands -0.863; under RRIRWRPPRLPRPRPRPRGFPRP, 0.25.
Under RRIRFRPPRLPRPRPRPKWIPRP stands -0.699; under RRIRIRPPRLPRPRPRPVGWPRP, 0.668; under RRIRARPPRLPRPRPRPALKPRP, 0.825.
Turning to RRIRSRPPRLPRPRPRPPAPPRP, the “shrunken log2 fold change” value is 0.906.
Under RRIRPRPPRLPRPRPRPDYAPRP stands 0.0585; under RRIRVRPPRLPRPRPRPIQWPRP, 0.138; under RRIRRRPPRLPRPRPRPEPLPRP, 0.137.
For RRIRKRPPRLPRPRPRPYLGPRP, the “shrunken log2 fold change” value was -0.0981.
As to RRIRPRPPRLPRPRPRPHIEPRP, the “shrunken log2 fold change” value is -0.646.
For RRIRFRPPRLPRPRPRPPNCPRP the value was -0.159; for RRIRMRPPRLPRPRPRPGVYPRP, 0.104; for RRIRVRPPRLPRPRPRPDIAPRP, -0.211.
For RRIRDRPPRLPRPRPRPPMAPRP the value was -0.0543.
For RRIRSRPPRLPRPRPRPLKCPRP the value was -0.0843; for RRIRQRPPRLPRPRPRPSHYPRP, -0.224; for RRIRTRPPRLPRPRPRPCQFPRP, -0.0244.
Turning to RRIRHRPPRLPRPRPRPKYMPRP, the “shrunken log2 fold change” value was -0.746.
For RRIRPRPPRLPRPRPRPETCPRP the value was 0.787; for RRIRTRPPRLPRPRPRPMTPPRP, 0.126; for RRIRIRPPRLPRPRPRPDMDPRP, -0.122.
On to RRIRNRPPRLPRPRPRPRQVPRP, for which the “shrunken log2 fold change” value is -0.306.
Under RRIRERPPRLPRPRPRPVNFPRP stands -0.0265.
With RRIRGRPPRLPRPRPRPNASPRP, the “shrunken log2 fold change” value worked out at 0.496.
For RRIRHRPPRLPRPRPRPKQWPRP the value was 0.0913.
For RRIRCRPPRLPRPRPRPEGGPRP the value was 0.477.
Under RRIRDRPPRLPRPRPRPPEIPRP stands 0.487; under RRIRSRPPRLPRPRPRPNYQPRP, -0.199; under RRIRQRPPRLPRPRPRPVFDPRP, -0.446.
In the case of RRIRMRPPRLPRPRPRPHGKPRP, the “shrunken log2 fold change” value was -0.0884.
Under RRIRKRPPRLPRPRPRPRFVPRP stands 0.0638; under RRIRSRPPRLPRPRPRPRPKPRP, 0.518; under RRIRKRPPRLPRPRPRPHFMPRP, -0.171.
Regarding RRIRSRPPRLPRPRPRPGGLPRP, the “shrunken log2 fold change” value is 0.177.
Regarding RRIRIRPPRLPRPRPRPHAWPRP, the “shrunken log2 fold change” value was 0.0947.
For RRIRNRPPRLPRPRPRPKQQPRP the value was 0.163; for RRIRHRPPRLPRPRPRPAIIPRP, -0.113; for RRIRCRPPRLPRPRPRPSEEPRP, -0.0443.
Under RRIRTRPPRLPRPRPRPWWNPRP stands -0.233; under RRIRWRPPRLPRPRPRPPQQPRP, 0.163.
Under RRIRGRPPRLPRPRPRPLNCPRP stands -0.0116; under RRIRSRPPRLPRPRPRPLEYPRP, -0.277.
For RRIRLRPPRLPRPRPRPMVIPRP, the “shrunken log2 fold change” value came to 0.036.
Regarding RRIRPRPPRLPRPRPRPKQAPRP, the “shrunken log2 fold change” value was -0.0162.
As for RRIRCRPPRLPRPRPRPGYMPRP, the “shrunken log2 fold change” value is -0.836.
In the case of RRIRDRPPRLPRPRPRPTFLPRP, the “shrunken log2 fold change” value turned out to be 0.196.
Under RRIRQRPPRLPRPRPRPRMPPRP stands 0.216.
For RRIRLRPPRLPRPRPRPNISPRP the value was -0.373; for RRIRTRPPRLPRPRPRPMINPRP, -0.239; for RRIRVRPPRLPRPRPRPDMSPRP, -0.0318.
For RRIRRRPPRLPRPRPRPGRAPRP the value was 0.648; for RRIRCRPPRLPRPRPRPQFCPRP, -0.187; for RRIRRRPPRLPRPRPRPDSKPRP, -0.0649.
Turning to RRIRCRPPRLPRPRPRPETHPRP, the “shrunken log2 fold change” value is 0.0444.
Regarding RRIRSRPPRLPRPRPRPCAWPRP, the “shrunken log2 fold change” value was -0.035.
For RRIRARPPRLPRPRPRPAMTPRP the value was 0.356.
As for RRIRLRPPRLPRPRPRPTPKPRP, the “shrunken log2 fold change” value was found to be 0.137.
For RRIRWRPPRLPRPRPRPYWNPRP, the “shrunken log2 fold change” value is -0.645.
For the sequence RRIRVRPPRLPRPRPRPFGFPRP, the “shrunken log2 fold change” value is -0.294.
Turning to RRIRWRPPRLPRPRPRPRLTPRP, the “shrunken log2 fold change” value turned out to be 0.307.
For the sequence RRIRERPPRLPRPRPRPGGEPRP, the “shrunken log2 fold change” value is 0.127.
On to RRIRVRPPRLPRPRPRPCCNPRP, for which the “shrunken log2 fold change” value is -0.426.
Take RRIRMRPPRLPRPRPRPCNSPRP: the “shrunken log2 fold change” value is -0.138.
For RRIRRRPPRLPRPRPRPYRPPRP, the “shrunken log2 fold change” value was -0.0416.
For RRIRSRPPRLPRPRPRPLVKPRP the value was -0.111.
For the sequence RRIRQRPPRLPRPRPRPPMPPRP, the “shrunken log2 fold change” value came out at 0.237.
For RRIRWRPPRLPRPRPRPWLGPRP the value was 0.00929.
For RRIRRRPPRLPRPRPRPCWYPRP, the “shrunken log2 fold change” value is -0.112.
Under RRIRSRPPRLPRPRPRPDPCPRP stands 0.0809; under RRIRQRPPRLPRPRPRPMMKPRP, -0.0269; under RRIRQRPPRLPRPRPRPQIWPRP, 0.0984.
Under RRIRHRPPRLPRPRPRPHNHPRP stands -0.577; under RRIRYRPPRLPRPRPRPWHKPRP, -0.377; under RRIRCRPPRLPRPRPRPRTMPRP, -0.0155.
For RRIRYRPPRLPRPRPRPVNLPRP the value was -0.0688; for RRIRERPPRLPRPRPRPAAVPRP, 0.057; for RRIRVRPPRLPRPRPRPHISPRP, 0.0648.
Turning to RRIRIRPPRLPRPRPRPHDAPRP, the “shrunken log2 fold change” value is -0.175.
Regarding RRIRHRPPRLPRPRPRPSGYPRP, the “shrunken log2 fold change” value is -0.0698.
On to RRIRLRPPRLPRPRPRPWCLPRP, for which the “shrunken log2 fold change” value is -0.317.
Under RRIRIRPPRLPRPRPRPWAGPRP stands -0.291; under RRIRDRPPRLPRPRPRPKRVPRP, -0.0521.
Turning to RRIRERPPRLPRPRPRPGAGPRP, the “shrunken log2 fold change” value came to 0.395.
For RRIRVRPPRLPRPRPRPLMRPRP the value was 0.515.
Consider RRIRARPPRLPRPRPRPWADPRP, for which the “shrunken log2 fold change” value came out at 0.0394.
For RRIRYRPPRLPRPRPRPHYFPRP the value was -0.833.
For the sequence RRIRMRPPRLPRPRPRPICDPRP, the “shrunken log2 fold change” value was determined as 0.36.
Under RRIRRRPPRLPRPRPRPQWYPRP stands -0.258; under RRIRMRPPRLPRPRPRPKFKPRP, -0.0108.
For RRIRIRPPRLPRPRPRPCLVPRP the value was -0.687.
For the sequence RRIRKRPPRLPRPRPRPTQQPRP, the “shrunken log2 fold change” value turned out to be 1.35.
Consider RRIRIRPPRLPRPRPRPRPNPRP, for which the “shrunken log2 fold change” value turned out to be 0.091.
For RRIRVRPPRLPRPRPRPNVKPRP the value was -0.159; for RRIRKRPPRLPRPRPRPQQAPRP, -0.0621.
Consider RRIRMRPPRLPRPRPRPIVPPRP, for which the “shrunken log2 fold change” value stood at 0.208.
For RRIRIRPPRLPRPRPRPSFAPRP the value was -0.24; for RRIRARPPRLPRPRPRPMCDPRP, 0.526; for RRIRSRPPRLPRPRPRPWLNPRP, -0.119.
Regarding RRIRRRPPRLPRPRPRPYEDPRP, the “shrunken log2 fold change” value was -0.08.
For RRIRWRPPRLPRPRPRPVIIPRP the value was -0.219.
Take RRIRDRPPRLPRPRPRPGTVPRP: the “shrunken log2 fold change” value is 0.118.
Regarding RRIRLRPPRLPRPRPRPAMIPRP, the “shrunken log2 fold change” value was -0.223.
Under RRIRHRPPRLPRPRPRPYMPPRP stands -0.402; under RRIRLRPPRLPRPRPRPFNGPRP, -0.0434; under RRIRDRPPRLPRPRPRPNMPPRP, -0.497.
For RRIRMRPPRLPRPRPRPDYSPRP the value was -0.0167; for RRIRMRPPRLPRPRPRPKFCPRP, 0.0393; for RRIRYRPPRLPRPRPRPYLRPRP, -0.00962.
For the sequence RRIRLRPPRLPRPRPRPFNIPRP, the “shrunken log2 fold change” value is -0.0972.
For RRIRGRPPRLPRPRPRPTQVPRP the value was 0.353.
RRIRNRPPRLPRPRPRPNCLPRP: the “shrunken log2 fold change” value is -0.116.
Under RRIRFRPPRLPRPRPRPFRPPRP stands -0.466.
RRIRDRPPRLPRPRPRPKSKPRP: the “shrunken log2 fold change” value was -0.105.

For the origin of these results see the supplement of paper PMC9112550, “Optimization of the antimicrobial peptide Bac7 by deep mutational scanning” (BMC Biology, 2022).
